# Source: patent US12072338B2, “Pharmaceutical peptides for the treatment of inflammatory diseases” (PROTAGONISTS LTD., priority 2007, dated 2024)
# Like-named read-outs stand apart in the source and are kept apart here.
# Columns and labels:
# SDF1-β = target: T1, SDF1-β (Homo sapiens, UniProt P48061); assay: Micro-array analysis of chemokine binding peptides: SDF1-β
# T1 construct: purchased 300-28b
# How it was run: (§1)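 Chemokines were printed at 25 and 50 μg/ml (final, in print reagent) on protein microarray slides, blocked, then exposed to recombinant peptide-displaying phage at 10^7 pfu/μl for 1 h at RT. Bound phage was detected with mouse anti-M13 mAb and Cy3 goat anti-mouse IgG; values are relative Cy3 fluorescence.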
# I-TAC = target: T2, I-TAC (Homo sapiens, UniProt O14625); assay: Micro-array analysis of chemokine binding peptides: I-TAC; settings: for binding to I-TAC with relatively high affinity (Relative Fluorescence Units): limit = start of the upper 75% of that peptide's response range
# T2 construct: purchased 300-46
# T2 sequence (O14625 22-94): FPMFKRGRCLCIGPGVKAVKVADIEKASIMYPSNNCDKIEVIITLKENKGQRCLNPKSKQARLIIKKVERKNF
# How it was run: as §1
# I-309 = target: T3, I-309 (Homo sapiens, UniProt P22362); assay: Micro-array analysis of chemokine binding peptides: I-309; settings: for binding to I-309 with relatively high affinity (Relative Fluorescence Units): limit = start of the upper 75% of that peptide's response range
# T3 construct: purchased 300-37
# T3 sequence (P22362 24-96): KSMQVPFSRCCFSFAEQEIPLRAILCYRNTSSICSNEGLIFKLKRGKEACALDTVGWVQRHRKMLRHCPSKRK
# How it was run: as §1
# MCP-2 = target: T4, MCP-2 (Homo sapiens, UniProt P80075); assay: Micro-array analysis of chemokine binding peptides: MCP-2; settings: limit = start of the upper 75% of that peptide's response range
# T4 construct: purchased 300-15
# T4 sequence (P80075 24-99): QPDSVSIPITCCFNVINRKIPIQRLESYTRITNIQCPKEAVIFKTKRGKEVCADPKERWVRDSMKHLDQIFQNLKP
# How it was run: as §1
# BCA-1 = target: T5, BCA-1 (Homo sapiens, UniProt O43927); assay: Micro-array analysis of chemokine binding peptides: BCA-1
# T5 construct: purchased 300-47
# T5 sequence (O43927 23-109): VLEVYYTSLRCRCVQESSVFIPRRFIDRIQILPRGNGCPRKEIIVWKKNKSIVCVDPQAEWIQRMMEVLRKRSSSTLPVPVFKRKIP
# How it was run: as §1
# Fractalkine = target: T6, Fractalkine (Homo sapiens, UniProt P78423); assay: Micro-array analysis of chemokine binding peptides: Fractalkine
# T6 construct: purchased 300-31
# T6 sequence (P78423 25-100 limits assumed): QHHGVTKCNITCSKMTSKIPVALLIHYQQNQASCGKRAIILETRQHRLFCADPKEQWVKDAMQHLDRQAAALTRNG
# How it was run: as §1
# TECK = target: T7, TECK (Homo sapiens, UniProt O15444); assay: Micro-array analysis of chemokine binding peptides: TECK
# T7 construct: purchased 300-45
# T7 sequence (O15444 24-150): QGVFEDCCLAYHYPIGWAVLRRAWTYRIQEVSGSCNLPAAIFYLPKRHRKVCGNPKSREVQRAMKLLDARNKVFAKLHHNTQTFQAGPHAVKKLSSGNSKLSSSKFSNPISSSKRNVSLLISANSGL
# How it was run: as §1
# IL-8 = assay: Micro-array analysis of chemokine binding peptides: IL-8; settings: for binding to IL-8 with relatively high affinity (Relative Fluorescence Units): limit = start of the upper 75% of that peptide's response range
# How it was run: as §1
# Eotaxin 3 = target: T8, Eotaxin 3 (Homo sapiens, UniProt Q9Y258); assay: Micro-array analysis of chemokine binding peptides: Eotaxin 3; settings: for binding to Eotaxin 3 with relatively high affinity (Relative Fluorescence Units): limit = start of the upper 75% of that peptide's response range
# T8 construct: purchased 300-48
# T8 sequence (Q9Y258 24-94): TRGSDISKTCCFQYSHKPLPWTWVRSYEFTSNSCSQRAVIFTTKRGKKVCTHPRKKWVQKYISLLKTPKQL
# How it was run: as §1
# MCP-4 = target: T9, MCP-4 (Homo sapiens, UniProt Q99616); assay: Micro-array analysis of chemokine binding peptides: MCP-4; settings: limit = start of the upper 75% of that peptide's response range
# T9 construct: purchased 300-24
# How it was run: as §1
# Exodus-2 = target: T10, Exodus-2 (Homo sapiens, UniProt O00585); assay: Micro-array analysis of chemokine binding peptides: Exodus-2
# T10 construct: purchased 300-35
# T10 sequence (O00585 24-134): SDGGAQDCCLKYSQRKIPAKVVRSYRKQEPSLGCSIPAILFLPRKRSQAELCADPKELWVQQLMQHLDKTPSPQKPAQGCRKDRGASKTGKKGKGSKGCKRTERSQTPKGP
# How it was run: as §1
# Eotaxin 2 = target: T11, Eotaxin 2 (Homo sapiens, UniProt O00175); assay: Micro-array analysis of chemokine binding peptides: Eotaxin 2
# T11 construct: purchased 300-33
# T11 sequence (O00175 27-119): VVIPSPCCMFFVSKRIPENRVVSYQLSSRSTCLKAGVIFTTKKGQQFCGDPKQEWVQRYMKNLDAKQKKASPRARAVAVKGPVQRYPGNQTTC
# Procedure: (1) Printing: Chemokine (CK) solution (in water) was serially diluted with Print Reagent (GenTel BioSurfaces USA) to final concentrations of 50 μg and 25 μg/ml. BSA/BSA-Biotin control solutions (in water) were diluted with Print Reagent to 100 μg/ml. Amplified stock of M13 phage control (M13KEgIII Cloning Vector, New England Biolabs, Cat.No.E8101S) was stored in Tris Buffered Saline (TBS; pH7.5, 4° C.) and diluted with Print Reagent to the working titre (10^8 pfu/μl). An automated spotting robot (16 pin print tool, 0.4 mm head; BioRobotics, UK) was used to print the CK/BSA control/M13 control, 5 repeats per sample (CK 25 μg/ml and 50 μg/ml; BSA 100 μg/ml; M13 20 μl), on PATH Protein Microarray Slides (GenTel, Prod.No. 2-1005/-1025) at […], and 50-70% relative humidity. Printed micro-array slides were stored at Room Temperature (RT) or 4° C. for at least 24 h before use.
# (2) Blocking: Block Buffer (500 μl/partition; PATHblock, GenTel, Prod.No. 2-1014) was applied to the slide for 1 hour at room temp (RT). After removal of Block Buffer, the slide was air dried for 25 minutes;
# (3) Phage Presented Peptide Binding: Amplified recombinant phage stock was stored in TBS and diluted with Wash Buffer to working titer (10^7 pfu/μl). Recombinant phage suspension (300 μl) was applied per partition and incubated at RT for 1 hour with gentle agitation.
# (4) First Washing: The slides were washed twice with Wash Buffer 300 μl/partition).
# (5) Primary Antibody (Ab) Labeling: The slides were incubated with the Primary Ab (1 mg/ml diluted ×2500 (Wash Reagent), 300 μl; Mouse Anti-M13 monoclonal Ab; Amersham Biosciences, UK; Product Code 27-9420-01) for 45 minutes at RT.
# (6) Second Washing: The slides were washed twice with Wash Buffer (300 μl/partition).
# (7) Secondary Ab Labeling: The slides were incubated with Secondary Ab (1.5 mg/ml diluted ×5000 (Wash Reagent), 300 μl; Cy3-conjugated AffiniPure Goat Anti-Mouse IgG; Jackson ImmunoReserch Labs, USA; Product Code 115-165-062).
# (8) Third Washing: The slides were washed twice with Wash Buffer (300 μl/partition).
# (9) Rinse: the slides were rinsed twice with Rinse Buffer (PATHrinse, GenTel, Prod.No. 2-1018) then dried well.
# (10) Scanning: The peptide-bound, labeled slide was scanned (Laser Intensity 80%, Gain 80%, Resolution 10 μm) with a ScanArray Life Scanner (Packard BioChip Technologies, USA).
# (11) Analysis: Quantitative analysis of micro-array was performed by the SpotReader program of Niles Scientific (USA) and presented as Relative Fluorescence (RF) as a function of CK concentration. Micro-array readout (Cy3 fluorescence) was quantified to determine the relative binding affinities of a CBP for the CKs and by inference, the specificity of the CBP for binding to a CK.
# SDF1-α = target: T12, SDF1-α (Homo sapiens, UniProt P48061); assay: Micro-array analysis of chemokine binding peptides: SDF1-α
# T12 construct: purchased 300-28a
# How it was run: as §1
# [1] = limit = start of the upper 75% of that peptide's response range
# T1 sequence (P48061 22-93): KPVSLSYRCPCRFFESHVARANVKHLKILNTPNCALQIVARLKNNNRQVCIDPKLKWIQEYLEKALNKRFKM
# Sequence of IL-8 (P10145 28-99 limits assumed): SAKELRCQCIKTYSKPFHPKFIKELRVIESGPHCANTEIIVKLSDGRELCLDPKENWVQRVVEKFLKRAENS
# T9 sequence (Q99616 17-98): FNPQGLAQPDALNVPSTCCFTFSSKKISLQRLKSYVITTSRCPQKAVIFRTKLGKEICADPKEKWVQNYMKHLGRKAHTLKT
# T12 sequence (P48061 22-89 limits assumed): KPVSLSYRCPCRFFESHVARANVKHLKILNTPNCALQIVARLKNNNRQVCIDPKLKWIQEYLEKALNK
Sequence,binding to I-TAC with relatively high affinity (Relative Fluorescence Units) (I-TAC),binding to I-309 with relatively high affinity (Relative Fluorescence Units) (I-309),binding to MCP-2 with relatively high affinity (Relative Fluorescence Units) (MCP-2),"binding to Fractalkine, stated in words (Fractalkine)","binding to IL-8, stated in words (IL-8)",binding to IL-8 with relatively high affinity (Relative Fluorescence Units) (IL-8),binding to Eotaxin 3 with relatively high affinity (Relative Fluorescence Units) (Eotaxin 3),binding to MCP-4 with relatively high affinity (Relative Fluorescence Units) (MCP-4),"binding to SDF1-β, stated in words (SDF1-β)","binding to Exodus-2, stated in words (Exodus-2)","binding to BCA-1, stated in words (BCA-1)","binding to SDF1-α, stated in words (SDF1-α)","binding to TECK, stated in words (TECK)",other results
WVFGNAMCK [P8],"> 25,000 RFU","> 25,000 RFU","> 25,000 RFU",bound specifically and differentially,bound specifically and differentially,"> 25,000 RFU","> 25,000 RFU","> 25,000 RFU",,,,,,"binding to SDF1-β with relatively high affinity (Relative Fluorescence Units) (SDF1-β; [1]): > 25,000 RFU; binding to BCA-1 with relatively high affinity (Relative Fluorescence Units) (BCA-1; [1]): > 25,000 RFU; binding to Fractalkine with relatively high affinity (Relative Fluorescence Units) (Fractalkine; [1]): > 25,000 RFU; binding to TECK with relatively high affinity (Relative Fluorescence Units) (TECK; [1]): > 25,000 RFU"
DYDYGAPC [Ph-p30],"> 15,000 RFU","> 15,000 RFU","> 15,000 RFU",bound,,"> 15,000 RFU","> 15,000 RFU","> 15,000 RFU",bound,bound,bound,bound,bound,"binding to Eotaxin 2 with relatively high affinity (Relative Fluorescence Units) (Eotaxin 2; [1]): > 15,000 RFU"
WVFGAAMCK [Ph-p8.8],,,"> 15,000 RFU",bound,bound,,,"> 15,000 RFU",bound,bound,bound,bound,bound,"binding to I-TAC, stated in words (I-TAC): bound; binding to I-309, stated in words (I-309): bound; binding to Eotaxin 2, stated in words (Eotaxin 2): bound; binding to Fractalkine, stated in words (Fractalkine; listed as P8.8): bound specifically and differentially; binding to IL-8, stated in words (IL-8; listed as P8.8): bound specifically and differentially; binding to Eotaxin 3, stated in words (Eotaxin 3): bound"
